Assays:
HLA-A*02:03 = assay: IEDB peptide-MHC binding, purified MHC/direct/fluorescence; filed as Kd, often an IC50 or EC50 that approximates it; ≥ and ≤ were set here for values at or beyond the usual limits of such assays
HLA-A*02:11 = assay: as above
HLA-A*02:12 = assay: as above
HLA-A*02:16 = assay: as above
HLA-A*02:19 = assay: as above
HLA-A*03:01 [1] = assay: as above
HLA-A*24:03 = assay: as above
HLA-A*29:02 = assay: as above
HLA-A*68:02 = assay: as above
HLA-B*40:01 = assay: as above
HLA-A*02:01 [2] = assay: IEDB peptide-MHC binding, purified MHC/competitive/fluorescence; filed as Kd, often an IC50 or EC50 that approximates it; ≥ and ≤ were set here for values at or beyond the usual limits of such assays
HLA-A*26:01 [3] = assay: as above
HLA-A*69:01 [4] = assay: as above
HLA-B*15:01 [5] = assay: as above
HLA-B*15:17 = assay: as above
HLA-B*18:01 = assay: as above
HLA-B*27:03 = assay: as above
HLA-B*39:01 = assay: as above
HLA-B*46:01 = assay: as above
HLA-B*51:01 = assay: as above
HLA-B*57:01 = assay: as above
HLA-A*03:01 [6] = assay: IEDB peptide-MHC binding, purified MHC/competitive/fluorescence; ≥ and ≤ were set here for values at or beyond the usual limits of such assays; conditions: source organism: Sudan ebolavirus
HLA-A*11:01 [7] = assay: as above; conditions: source organism: Sudan ebolavirus
HLA-A*23:01 = assay: IEDB peptide-MHC binding, purified MHC/direct/fluorescence; filed as Kd, often an IC50 or EC50 that approximates it; ≥ and ≤ were set here for values at or beyond the usual limits of such assays
HLA-B*27:05 = assay: as above
HLA-A*01:01 = assay: as above; conditions: source organism: Campylobacter jejuni RM1221
HLA-A*02:01 [8] = assay: as above; conditions: source organism: Campylobacter jejuni
HLA-A*11:01 [9] = assay: as above; conditions: source organism: Campylobacter jejuni
HLA-A*26:01 [10] = assay: as above; conditions: source organism: Campylobacter jejuni RM1221
HLA-A*30:01 = assay: as above; conditions: source organism: Campylobacter jejuni
HLA-A*31:01 [11] = assay: as above; conditions: source organism: Campylobacter jejuni
HLA-A*69:01 [12] = assay: as above; conditions: source organism: Campylobacter jejuni RM1221
HLA-B*07:02 = assay: as above
HLA-B*08:01 = assay: as above; conditions: source organism: Campylobacter jejuni RM1221
HLA-B*15:01 [13] = assay: as above; conditions: source organism: Campylobacter jejuni RM1221
HLA-B*44:02 = assay: as above; conditions: source organism: Campylobacter jejuni RM1221
HLA-B*58:01 = assay: as above
HLA-A*31:01 [14] = assay: IEDB peptide-MHC binding, purified MHC/competitive/fluorescence; filed as Kd, often an IC50 or EC50 that approximates it; ≥ and ≤ were set here for values at or beyond the usual limits of such assays; conditions: source organism: Zaire ebolavirus
[15] = source organism: Zaire ebolavirus
[16] = source organism: Limestone Canyon virus
[17] = source organism: Orthohantavirus andesense
[18] = source organism: Orthohantavirus sinnombreense
[19] = source organism: Campylobacter jejuni RM1221
[20] = source organism: Orthohantavirus hantanense
[21] = source organism: Seoul virus 80-39

AENCYNLEI
≥ 20 µM: Kd (HLA-A*02:03; [15]) | Kd (HLA-A*02:11; [15]) | Kd (HLA-A*02:12; [15]) | Kd (HLA-A*02:16; [15]) | Kd (HLA-A*02:19; [15]) | Kd (HLA-A*03:01 [1]; [15]) | Kd (HLA-A*24:03; [15]) | Kd (HLA-A*29:02; [15]) | Kd (HLA-A*68:02; [15]) | Kd (HLA-A*02:01 [2]; [15]) | Kd (HLA-A*26:01 [3]; [15]) | Kd (HLA-A*69:01 [4]; [15]) | Kd (HLA-B*15:01 [5]; [15]) | Kd (HLA-B*15:17; [15]) | Kd (HLA-B*18:01; [15]) | Kd (HLA-B*27:03; [15]) | Kd (HLA-B*39:01; [15]) | Kd (HLA-B*46:01; [15]) | Kd (HLA-B*51:01; [15]) | Kd (HLA-B*57:01; [15])
0.0822 µM: Kd (HLA-B*40:01; [15])

DRLASTVIY
8.77 µM: Kd (HLA-B*27:05; [15])
≥ 120 µM: IC50 (HLA-A*11:01 [7])
≥ 20 µM: Kd (HLA-A*02:03; [15]) | Kd (HLA-A*02:11; [15]) | Kd (HLA-A*02:12; [15]) | Kd (HLA-A*02:16; [15]) | Kd (HLA-A*02:19; [15]) | Kd (HLA-A*03:01 [1]; [15]) | Kd (HLA-A*23:01; [15]) | Kd (HLA-A*24:03; [15]) | Kd (HLA-A*29:02; [15]) | Kd (HLA-A*02:01 [2]; [15]) | Kd (HLA-A*26:01 [3]; [15]) | Kd (HLA-A*69:01 [4]; [15]) | Kd (HLA-B*15:01 [5]; [15]) | Kd (HLA-B*15:17; [15]) | Kd (HLA-B*18:01; [15]) | Kd (HLA-B*27:03; [15]) | Kd (HLA-B*39:01; [15]) | Kd (HLA-B*46:01; [15]) | Kd (HLA-B*51:01; [15]) | Kd (HLA-B*57:01; [15])
≥ 257 µM: IC50 (HLA-A*03:01 [6])

LVTARQKLK
≥ 20 µM: Kd (HLA-A*02:03; [16]) | Kd (HLA-A*02:11; [16]) | Kd (HLA-A*02:12; [16]) | Kd (HLA-A*02:16; [16]) | Kd (HLA-A*02:19; [16]) | Kd (HLA-A*23:01; [16]) | Kd (HLA-A*24:03; [16]) | Kd (HLA-A*29:02; [16]) | Kd (HLA-A*68:02; [16]) | Kd (HLA-A*02:01 [2]; [18]) | Kd (HLA-A*26:01 [3]; [18]) | Kd (HLA-A*69:01 [4]; [18]) | Kd (HLA-B*15:01 [5]; [18]) | Kd (HLA-B*15:17; [18]) | Kd (HLA-B*18:01; [18]) | Kd (HLA-B*27:03; [18]) | Kd (HLA-B*39:01; [18]) | Kd (HLA-B*46:01; [18]) | Kd (HLA-B*51:01; [18]) | Kd (HLA-B*57:01; [18])
9 µM: Kd (HLA-A*03:01 [1]; [17])

ALIVAIWDK
2.7 µM: Kd (HLA-A*03:01 [1]; source organism: Campylobacter jejuni)
8.54 µM: Kd (HLA-A*30:01)
0.553 µM: Kd (HLA-A*11:01 [9])
≥ 20 µM: Kd (HLA-A*01:01) | Kd (HLA-A*02:01 [8]) | Kd (HLA-A*24:03; [19]) | Kd (HLA-A*26:01 [10]) | Kd (HLA-A*69:01 [12]) | Kd (HLA-B*07:02; [19]) | Kd (HLA-B*08:01) | Kd (HLA-B*15:01 [13]) | Kd (HLA-B*27:05; [19]) | Kd (HLA-B*40:01; [19]) | Kd (HLA-B*44:02) | Kd (HLA-B*58:01; [19])
11.8 µM: Kd (HLA-A*31:01 [11])

GIVSSMHYK
≥ 20 µM: Kd (HLA-A*02:03; [15]) | Kd (HLA-A*02:11; [15]) | Kd (HLA-A*02:12; [15]) | Kd (HLA-A*02:16; [15]) | Kd (HLA-A*02:19; [15]) | Kd (HLA-A*23:01; [15]) | Kd (HLA-A*24:03; [15]) | Kd (HLA-A*29:02; [15]) | Kd (HLA-A*68:02; [15]) | Kd (HLA-A*02:01 [2]; [15]) | Kd (HLA-A*26:01 [3]; [15]) | Kd (HLA-A*31:01 [14]) | Kd (HLA-A*69:01 [4]; [15]) | Kd (HLA-B*15:01 [5]; [15]) | Kd (HLA-B*15:17; [15]) | Kd (HLA-B*18:01; [15]) | Kd (HLA-B*27:03; [15]) | Kd (HLA-B*39:01; [15]) | Kd (HLA-B*46:01; [15]) | Kd (HLA-B*51:01; [15]) | Kd (HLA-B*57:01; [15])
1.38 µM: Kd (HLA-A*03:01 [1]; source organism: Sudan ebolavirus - Maleo (1979))

VSANVKGNW
0.0023 µM: Kd (HLA-B*58:01; [17])
≥ 20 µM: Kd (HLA-A*02:03; [17]) | Kd (HLA-A*02:11; [17]) | Kd (HLA-A*02:12; [17]) | Kd (HLA-A*02:16; [17]) | Kd (HLA-A*02:19; [17]) | Kd (HLA-A*03:01 [1]; [17]) | Kd (HLA-A*24:03; [17]) | Kd (HLA-A*29:02; [17]) | Kd (HLA-A*68:02; [17]) | Kd (HLA-A*02:01 [2]; [17]) | Kd (HLA-A*26:01 [3]; [17]) | Kd (HLA-A*69:01 [4]; [17]) | Kd (HLA-B*15:01 [5]; [17]) | Kd (HLA-B*18:01; [17]) | Kd (HLA-B*27:03; [17]) | Kd (HLA-B*39:01; [17]) | Kd (HLA-B*46:01; [17])

LVRDITESL
0.0392 µM: Kd (HLA-B*07:02; [21])
≥ 20 µM: Kd (HLA-A*02:03; [20]) | Kd (HLA-A*02:12; [20]) | Kd (HLA-A*02:16; [20]) | Kd (HLA-A*03:01 [1]; [20]) | Kd (HLA-A*23:01; [20]) | Kd (HLA-A*24:03; [20]) | Kd (HLA-A*29:02; [20]) | Kd (HLA-A*26:01 [3]; [21]) | Kd (HLA-A*69:01 [4]; [21]) | Kd (HLA-B*18:01; [21]) | Kd (HLA-B*27:03; [21]) | Kd (HLA-B*39:01; [21]) | Kd (HLA-B*51:01; [21]) | Kd (HLA-B*57:01; [21])
